{"source": "patent US20030099656A1", "about": "(published 2003)", "key": {"[1]": {"biological_target": "T1, SdrG (UniProt Q9KI13 50-597)", "T1 sequence (looked up)": "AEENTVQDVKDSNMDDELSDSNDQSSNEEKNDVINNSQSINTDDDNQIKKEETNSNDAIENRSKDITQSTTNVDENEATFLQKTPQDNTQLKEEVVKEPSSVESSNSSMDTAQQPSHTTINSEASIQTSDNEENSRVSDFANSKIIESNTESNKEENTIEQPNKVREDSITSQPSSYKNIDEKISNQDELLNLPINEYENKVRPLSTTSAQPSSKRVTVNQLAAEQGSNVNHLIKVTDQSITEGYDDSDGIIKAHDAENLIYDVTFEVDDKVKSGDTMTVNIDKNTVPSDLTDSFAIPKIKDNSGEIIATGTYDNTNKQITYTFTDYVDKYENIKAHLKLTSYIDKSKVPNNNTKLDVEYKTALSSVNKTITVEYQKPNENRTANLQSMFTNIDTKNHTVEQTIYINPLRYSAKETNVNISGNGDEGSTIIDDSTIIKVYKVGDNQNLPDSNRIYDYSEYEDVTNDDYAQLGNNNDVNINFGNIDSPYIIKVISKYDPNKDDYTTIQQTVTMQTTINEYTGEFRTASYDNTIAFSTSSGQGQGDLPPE", "assay": "ELISA, SdrG"}, "[2]": {"biological_target": "T2, ClfA on S. aureus strain 67-0 cells (MRSA) (Staphylococcus aureus strain 67-0)", "T2 construct": "whole, on cells", "assay": "flow cytometry, overnight culture", "description": "(§1) As well, Newman ClfA::emr (ClfA knockout) and NewmanSpa::kan (Protein A knockout) were analyzed in the same manner as specificity controls. Following incubation with antibody, bacterial cells were incubated with Goat-F_{(ab′)2}-Anti-Mouse-F_{(ab′)2}-FITC which served as the detection antibody. […] For each bacterial strain, 10,000 events were collected and measured."}, "[3]": {"biological_target": "T3, ClfA on S. aureus strain 49 Europe cells (Staphylococcus aureus strain 49)", "T3 construct": "whole, on cells", "assay": "flow cytometry, overnight culture", "description": "as §1"}, "[4]": {"biological_target": "T4, ClfA on S. aureus strain 451 SAL4 cells (Staphylococcus aureus strain 451 Sal 4)", "T4 construct": "whole, on cells", "assay": "flow cytometry, overnight culture", "description": "as §1"}, "[5]": {"biological_target": "T5, ClfA on S. aureus strain 203 Singapore cells (Staphylococcus aureus strain 203)", "T5 construct": "whole, on cells", "assay": "flow cytometry, overnight culture", "description": "as §1"}, "[6]": {"biological_target": "T6, ClfA on S. aureus strain 397 SAL6 cells (Staphylococcus aureus strain 397 Sal 6)", "T6 construct": "whole, on cells", "assay": "flow cytometry, overnight culture", "description": "as §1"}, "[7]": {"biological_target": "T7, ClfA on S. aureus strain 206 SAL5 cells (Staphylococcus aureus strain 206 Sal5)", "T7 construct": "whole, on cells", "assay": "flow cytometry, overnight culture", "description": "as §1"}, "[8]": {"biological_target": "T8, ClfA on S. aureus strain 189 Japan cells (Staphylococcus aureus strain 189)", "T8 construct": "whole, on cells", "assay": "flow cytometry, overnight culture", "description": "as §1"}, "[9]": {"biological_target": "T9, ClfA on S. aureus strain 203 SAL2 cells (Staphylococcus aureus strain 203 Sal 2)", "T9 construct": "whole, on cells", "assay": "flow cytometry, overnight culture", "description": "as §1"}, "[10]": {"biological_target": "T10, ClfA on S. aureus strain Newman cells (wild type) (Staphylococcus aureus strain Newman, UniProt Q53653 40-899)", "T10 construct": "whole, on cells; also called Newman WT; Newman-WT", "T10 sequence (Q53653 40-899)": "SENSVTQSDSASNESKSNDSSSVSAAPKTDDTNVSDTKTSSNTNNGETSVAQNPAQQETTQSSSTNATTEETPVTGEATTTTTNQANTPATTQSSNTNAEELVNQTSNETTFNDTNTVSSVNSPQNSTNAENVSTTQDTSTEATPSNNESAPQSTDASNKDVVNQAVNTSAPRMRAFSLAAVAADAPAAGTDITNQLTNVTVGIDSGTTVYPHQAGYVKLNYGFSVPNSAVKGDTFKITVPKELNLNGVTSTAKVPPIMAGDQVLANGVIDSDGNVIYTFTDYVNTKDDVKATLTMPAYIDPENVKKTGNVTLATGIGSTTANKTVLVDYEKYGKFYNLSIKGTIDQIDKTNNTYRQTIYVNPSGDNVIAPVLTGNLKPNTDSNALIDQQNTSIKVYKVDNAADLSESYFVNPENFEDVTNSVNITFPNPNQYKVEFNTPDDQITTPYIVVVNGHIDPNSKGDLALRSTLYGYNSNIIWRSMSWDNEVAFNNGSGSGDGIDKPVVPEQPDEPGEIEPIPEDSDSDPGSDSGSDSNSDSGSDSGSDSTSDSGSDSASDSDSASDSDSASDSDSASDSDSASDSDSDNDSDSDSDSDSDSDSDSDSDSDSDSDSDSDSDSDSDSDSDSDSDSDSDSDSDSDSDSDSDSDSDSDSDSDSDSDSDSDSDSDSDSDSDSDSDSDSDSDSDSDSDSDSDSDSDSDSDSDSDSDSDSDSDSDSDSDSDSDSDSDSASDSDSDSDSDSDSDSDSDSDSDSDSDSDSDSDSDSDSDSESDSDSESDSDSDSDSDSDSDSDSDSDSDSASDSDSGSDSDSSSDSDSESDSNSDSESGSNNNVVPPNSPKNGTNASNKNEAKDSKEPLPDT", "assay": "flow cytometry, overnight culture", "description": "as §1"}, "[11]": {"biological_target": "T11, ClfA on S. aureus strain 4046 USA cells (Staphylococcus aureus strain 4046)", "T11 construct": "whole, on cells", "assay": "flow cytometry, overnight culture", "description": "as §1"}, "[12]": {"biological_target": "T12, ClfA on S. aureus strain 560 SAL 1 cells (Staphylococcus aureus strain 560 Sal 1)", "T12 construct": "whole, on cells", "assay": "flow cytometry, overnight culture", "description": "as §1"}, "[13]": {"biological_target": "T2, ClfA on S. aureus strain 67-0 cells …", "assay": "flow cytometry, 3 hr culture", "description": "as §1"}, "[14]": {"biological_target": "T3, ClfA on S. aureus strain 49 Europe cells", "assay": "flow cytometry, 3 hr culture", "description": "as §1"}, "[15]": {"biological_target": "T4, ClfA on S. aureus strain 451 SAL4 cells", "assay": "flow cytometry, 3 hr culture", "description": "as §1"}, "[16]": {"biological_target": "T5, ClfA on S. aureus strain 203 Singapore …", "assay": "flow cytometry, 3 hr culture", "description": "as §1"}, "[17]": {"biological_target": "T6, ClfA on S. aureus strain 397 SAL6 cells", "assay": "flow cytometry, 3 hr culture", "description": "as §1"}, "[18]": {"biological_target": "T7, ClfA on S. aureus strain 206 SAL5 cells", "assay": "flow cytometry, 3 hr culture", "description": "as §1"}, "[19]": {"biological_target": "T8, ClfA on S. aureus strain 189 Japan cells", "assay": "flow cytometry, 3 hr culture", "description": "as §1"}, "[20]": {"biological_target": "T9, ClfA on S. aureus strain 203 SAL2 cells", "assay": "flow cytometry, 3 hr culture", "description": "as §1"}, "[21]": {"biological_target": "T10, ClfA on S. aureus strain Newman cells …", "assay": "flow cytometry, 3 hr culture", "description": "as §1"}, "[22]": {"biological_target": "T11, ClfA on S. aureus strain 4046 USA cells", "assay": "flow cytometry, 3 hr culture", "description": "as §1"}, "[23]": {"biological_target": "T12, ClfA on S. aureus strain 560 SAL 1 cells", "assay": "flow cytometry, 3 hr culture", "description": "as §1"}, "[24]": {"biological_target": "T10, ClfA on S. aureus strain Newman cells …", "assay": "flow cytometry on S. aureus cells (FIG. 3)"}}, "data": [{"binder": "ClfA monoclonal antibody 12-9 (antibody, V domains shown, also called F12-9; Mab 12-9) VH: QVQLKESGPGLVAPSQSLSITCAISGFSLSRYSVHWVRQPPGKGLEWLGMIWGGGNTDYNSALKSRLSISKDNSKSQVFLKMNSLQTDDTAMYYCARKGEFYYGYDGFVYWGQGTLVTVSA VL: NIMMTQSPSSLAVSAGEKVTMSCKSSQSVLYSSNQKNYLAWYQQKPGQSPKLLIYWASTRESGVPDRFTGSGSGTDFTLTISSVQAEDLAVYYCHQYLSSYTFGGGTKLEIK", "values": [{"measurement": "binding result", "setting": "[1]", "value": "no binding"}, {"measurement": "Fluorescence Intensity (Geometric Mean)", "setting": "[2]", "value": 27.6}, {"measurement": "Fluorescence Intensity (Geometric Mean)", "setting": "[3]", "value": 11.3}, {"measurement": "Fluorescence Intensity (Geometric Mean)", "setting": "[4]", "value": 12.9}, {"measurement": "Fluorescence Intensity (Geometric Mean)", "setting": "[5]", "value": 15.4}, {"measurement": "Fluorescence Intensity (Geometric Mean)", "setting": "[6]", "value": 62.1}, {"measurement": "Fluorescence Intensity (Geometric Mean)", "setting": "[7]", "value": 33.5}, {"measurement": "Fluorescence Intensity (Geometric Mean)", "setting": "[8]", "value": 15.7}, {"measurement": "Fluorescence Intensity (Geometric Mean)", "setting": "[9]", "value": 40.4}, {"measurement": "Fluorescence Intensity (Geometric Mean)", "setting": "[10]", "value": 44.3}, {"measurement": "Fluorescence Intensity (Geometric Mean)", "setting": "[11]", "value": 23.5}, {"measurement": "Fluorescence Intensity (Geometric Mean)", "setting": "[12]", "value": 36.1}, {"measurement": "Fluorescence Intensity (Geometric Mean)", "setting": "[13]", "value": 11.2}, {"measurement": "Fluorescence Intensity (Geometric Mean)", "setting": "[14]", "value": 7.3}, {"measurement": "Fluorescence Intensity (Geometric Mean)", "setting": "[15]", "value": 1.1}, {"measurement": "Fluorescence Intensity (Geometric Mean)", "setting": "[16]", "value": 22.1}, {"measurement": "Fluorescence Intensity (Geometric Mean)", "setting": "[17]", "value": 28.9}, {"measurement": "Fluorescence Intensity (Geometric Mean)", "setting": "[18]", "value": 8.8}, {"measurement": "Fluorescence Intensity (Geometric Mean)", "setting": "[19]", "value": 11}, {"measurement": "Fluorescence Intensity (Geometric Mean)", "setting": "[20]", "value": 16.1}, {"measurement": "Fluorescence Intensity (Geometric Mean)", "setting": "[21]", "value": 30.8}, {"measurement": "Fluorescence Intensity (Geometric Mean)", "setting": "[22]", "value": 27.7}, {"measurement": "Fluorescence Intensity (Geometric Mean)", "setting": "[23]", "value": 28.8}]}, {"binder": "Chimeric monoclonal antibody 12-9 (antibody, V domains shown, also called Chimeric 12-9; recombinant chimeric 12-9) VH: QVQLKESGPGLVAPSQSLSITCAISGFSLSRYSVHWVRQPPGKGLEWLGMIWGGGNTDYNSALKSRLSISKDNSKSQVFLKMNSLQTDDTAMYYCARKGEFYYGYDGFVYWGQGTLVTVSA VL: NIMMTQSPSSLAVSAGEKVTMSCKSSQSVLYSSNQKNYLAWYQQKPGQSPKLLIYWASTRESGVPDRFTGSGSGTDFTLTISSVQAEDLAVYYCHQYLSSYTFGGGTKLEIK", "values": [{"measurement": "binding result", "setting": "[24]", "value": "binds"}]}]}
